Data reported in EP4786492A1 (Simcere Zaiming Pharmaceutical Co., Ltd., dated 2026).
Where a chain is given by its changes, count along the chain named.

B1: Hab015VL5VH6a-hFc (Fc fusion)
scFv (part 1 of 2): NIQMTQSPSSLSASVGDRVTITCKASENVGTYVSWYQQKPGKSPKLLIYGASNRYTGVPSRFSGSGSGTDFTLTISSLQPEDFATYYCGQFYSFPSTFGGGTKVEIK
scFv (part 2 of 2): EVQLVESGGGLVKPGGSLRLSCAASGITFSNFWMNWVRQAPEKGLEWVGQIRLKSDDYATHYAESVKGRFTISREDSKNTVYLQMNSLKTEDTAVYYCTTGYYFDYWGQGTTVTVSS
notes: humanized mab015, VL-linker-VH-human IgG1 Fc; also called Hab015L5H6a; not shown: linker; human IgG1 Fc fragment
B2: mab011 scFv-hFc (Fc fusion)
scFv (part 1 of 2): DIVLTQSPATLSVTPGDSVSLSCRASQSISNNLHWYQQKSHESPRLLIKYASQSISGIPSRFSGSGSGTDFTLSINSVETEDFGMYFCQQSNSWPWTFGGGTKLEIK
scFv (part 2 of 2): EVQLQQSGPELVKPGASVKISCKASGYTFTDYYMNWVKQSHGKSLEWIGDISPNYGGTNYNQKFKGKATLTVDKSSSTACMELRSLTSEDSAVYYCTRSFYYYGTGYDWYFDVWGTGTTVTVSS
notes: human-murine chimeric scFv-hFc, VL-linker-VH-human IgG1 Fc; not shown: linker; Fc fragment of human IgG1
B3: Hab008L1H2a-hFc (Fc fusion)
scFv (part 1 of 2): DIQMTQSPSSLSASVGDRVTITCKASQNVGTAVAWYQQKPGKSPKLLIFSASIRYTGVPSRFSGSGSGTDFTLTISSLQPEDFATYYCQQYSSSPYTFGGGTKVEIK
scFv (part 2 of 2): EVQLVQSGAEVKKPGASVKVSCKASGYTFTDYYMNWVRQAPGQRLEWMGIINPYNSGTSYNQKFRGRVTLTVDKSASTAYMELSSLRSEDTAVYYCSRYDYDYDVEGAMDYWGQGTTVTVSS
notes: humanized mab008, VL-linker-VH-human IgG1 Fc; also called Hab008 humanized molecule; not shown: linker; human IgG1 Fc fragment
B4: Hab008L3H2a-hFc (Fc fusion)
scFv (part 1 of 2): DIVMTQSPDSLAVSLGERATINCKASQNVGTAVAWYQQKPGQSPKLLIFSASIRYTGVPDRFSGSGSGTDFTLTISSLQAEDVAVYYCQQYSSSPYTFGGGTKVEIK
scFv (part 2 of 2): B3 scFv (part 2 of 2)
notes: as for B3
B5: Hab008L3H5-hFc (Fc fusion)
scFv (part 1 of 2): B4 scFv (part 1 of 2)
scFv (part 2 of 2): B3 scFv (part 2 of 2) with Q39R, S56G, L70I
notes: as for B3
B6: Hab008L1H5-hFc (Fc fusion)
scFv (part 1 of 2): B3 scFv (part 1 of 2)
scFv (part 2 of 2): B3 scFv (part 2 of 2) with Q39R, S56G, L70I
notes: as for B3
B7: mab001 scFv-hFc (Fc fusion)
scFv (part 1 of 2): not shown
scFv (part 2 of 2): QIQLVQSGPELKKPGETVKISCKASGYTFTTYGMSWVKQAPGKGLKWMGWINTYSGVPTYADDFKGRFAFSLETSASTAYLQINNLKNEDTATYFCARIGDYDYGEYWGQGTLVTVSA
notes: as for B2
B8: mab002 scFv-hFc (Fc fusion)
scFv (part 1 of 2): QIVLTQSPAIMSASPGEKVTMTCSARSSVSYMQWYQQKSGTSPKRWIYDTSKLASGVPARFSGSGSGTSYSLTISTMEAEDAATYYCQQWSSDPPTFGGGTKLEIK
scFv (part 2 of 2): QIQLVQSGPELKKPGETVKISCKASGYTFTNYGMNWLKQAPGKGLKWMGWINTYTGESTYADDFKGRFAFSLETSASTVYLQINNLKNEDMATYFCARMGDGYYDFTMDYWGQGTSVTVSS
notes: as for B2
B9: mab016 scFv-hFc (Fc fusion)
scFv (part 1 of 2): DIVMTQSQKFMSTTIGDRVSITCKASQNVGTTVAWYQQKPGQSPNLLLYSTSNRFTGVPDRFTGSGSGTDFTLTITNMQSEDLADYFCQQYNNYPLTFGGGTKLEIK
scFv (part 2 of 2): EVNLEESGGGLVQPGGSMKLSCVASGFAFSNFWMQWVRQSPEKGLEWVAQIRLKSDNYAAHYAESVKGRFTISRDDSKSSVYLQLNNLRAEDTGTYYCTQGNWVGFAYWGQGTLVTVSA
notes: as for B2

Key:
[1] = target: T1, mouse DLL3 on CHO K1-mDLL3 cells (mouse, UniProt O88516 33-490); experiment: FACS, CHO K1-mDLL3 cells
T1 construct: also called mouse DLL3 recombinant cell line
T1 sequence: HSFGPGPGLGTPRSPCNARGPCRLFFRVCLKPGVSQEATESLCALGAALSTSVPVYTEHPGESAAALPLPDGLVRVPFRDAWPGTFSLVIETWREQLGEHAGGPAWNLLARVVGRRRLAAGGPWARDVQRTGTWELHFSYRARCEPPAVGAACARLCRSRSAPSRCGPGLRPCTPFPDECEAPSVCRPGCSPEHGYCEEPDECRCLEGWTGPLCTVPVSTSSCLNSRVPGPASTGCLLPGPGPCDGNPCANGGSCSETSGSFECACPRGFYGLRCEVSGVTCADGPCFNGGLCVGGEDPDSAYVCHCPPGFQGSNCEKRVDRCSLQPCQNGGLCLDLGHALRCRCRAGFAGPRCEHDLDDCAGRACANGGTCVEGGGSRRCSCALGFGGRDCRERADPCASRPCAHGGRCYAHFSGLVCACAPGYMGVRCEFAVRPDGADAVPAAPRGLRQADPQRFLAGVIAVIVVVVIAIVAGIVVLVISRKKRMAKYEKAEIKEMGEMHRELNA

[2] = target: T2, monkey DLL3 on CHO K1-cyno DLL3 cells (cynomolgus monkey); experiment: FACS, CHO K1-cyno DLL3 cells
T2 construct: also called monkey DLL3 recombinant cell line
T2 chain: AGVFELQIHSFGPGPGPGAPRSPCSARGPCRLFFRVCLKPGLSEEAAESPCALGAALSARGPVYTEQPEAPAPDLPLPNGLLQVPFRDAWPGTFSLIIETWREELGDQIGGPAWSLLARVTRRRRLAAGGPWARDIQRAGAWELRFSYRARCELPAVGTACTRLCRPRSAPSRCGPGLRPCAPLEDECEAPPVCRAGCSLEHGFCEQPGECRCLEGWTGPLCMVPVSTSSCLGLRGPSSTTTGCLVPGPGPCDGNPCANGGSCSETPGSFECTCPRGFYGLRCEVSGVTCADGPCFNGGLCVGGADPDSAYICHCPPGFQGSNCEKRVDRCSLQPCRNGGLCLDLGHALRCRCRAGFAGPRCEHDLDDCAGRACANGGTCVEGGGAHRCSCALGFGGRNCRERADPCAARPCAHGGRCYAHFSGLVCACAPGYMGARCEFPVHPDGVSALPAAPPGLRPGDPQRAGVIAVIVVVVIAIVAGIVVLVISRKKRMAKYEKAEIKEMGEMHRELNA

[3] = target: T3, human DLL3 on CHO-K1 hDLL3 cells (human, UniProt Q9NYJ7 27-492); experiment: FACS, CHO-K1 hDLL3 cells
T3 construct: also called human DLL3 recombinant cell line
T3 sequence: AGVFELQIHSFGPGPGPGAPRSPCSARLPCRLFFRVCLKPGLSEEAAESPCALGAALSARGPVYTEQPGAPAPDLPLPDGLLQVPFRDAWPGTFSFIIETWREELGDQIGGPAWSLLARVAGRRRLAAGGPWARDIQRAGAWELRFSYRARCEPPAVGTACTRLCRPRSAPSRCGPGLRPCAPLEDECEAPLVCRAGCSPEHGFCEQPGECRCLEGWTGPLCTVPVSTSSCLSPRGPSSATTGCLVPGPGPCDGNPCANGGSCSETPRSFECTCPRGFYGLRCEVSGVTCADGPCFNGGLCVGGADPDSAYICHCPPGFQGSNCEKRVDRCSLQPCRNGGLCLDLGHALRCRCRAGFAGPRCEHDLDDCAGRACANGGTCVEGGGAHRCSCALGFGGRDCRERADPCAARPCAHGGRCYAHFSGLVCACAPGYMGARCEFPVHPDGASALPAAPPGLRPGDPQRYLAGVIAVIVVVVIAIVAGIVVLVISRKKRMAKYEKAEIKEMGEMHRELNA

[4] = target: T4, human DLL3 endogenously expressed on SHP77 and NCI-H82 cells (human, UniProt Q9NYJ7 27-618); experiment: FACS, SHP77 and NCI-H82 cells
T4 construct: whole, on cells; cells endogenously expressing DLL3; also called SHP77 cells; SHP-77 cells
T4 sequence (looked up): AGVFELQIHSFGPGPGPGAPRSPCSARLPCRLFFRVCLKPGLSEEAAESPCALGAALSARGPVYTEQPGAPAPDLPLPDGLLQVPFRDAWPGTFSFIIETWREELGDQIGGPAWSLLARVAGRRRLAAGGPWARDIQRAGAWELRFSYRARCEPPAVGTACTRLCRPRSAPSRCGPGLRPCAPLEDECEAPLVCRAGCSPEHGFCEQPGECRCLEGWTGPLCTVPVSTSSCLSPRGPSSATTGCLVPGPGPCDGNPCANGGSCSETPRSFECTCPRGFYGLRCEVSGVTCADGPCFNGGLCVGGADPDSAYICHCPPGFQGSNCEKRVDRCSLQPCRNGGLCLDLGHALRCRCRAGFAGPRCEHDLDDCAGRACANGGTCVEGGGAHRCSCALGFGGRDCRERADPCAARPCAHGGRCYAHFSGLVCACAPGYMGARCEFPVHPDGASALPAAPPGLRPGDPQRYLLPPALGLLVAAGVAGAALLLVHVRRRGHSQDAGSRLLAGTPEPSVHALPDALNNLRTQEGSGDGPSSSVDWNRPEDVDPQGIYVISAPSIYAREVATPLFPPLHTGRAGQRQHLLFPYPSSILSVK

human DLL3-his protein = target: T5, human DLL3-his protein (human, UniProt Q9NYJ7 27-492); experiment: ELISA
T5 construct: also called human DLL3 protein; DLL3 antigen protein; not shown: His tag
T5 sequence: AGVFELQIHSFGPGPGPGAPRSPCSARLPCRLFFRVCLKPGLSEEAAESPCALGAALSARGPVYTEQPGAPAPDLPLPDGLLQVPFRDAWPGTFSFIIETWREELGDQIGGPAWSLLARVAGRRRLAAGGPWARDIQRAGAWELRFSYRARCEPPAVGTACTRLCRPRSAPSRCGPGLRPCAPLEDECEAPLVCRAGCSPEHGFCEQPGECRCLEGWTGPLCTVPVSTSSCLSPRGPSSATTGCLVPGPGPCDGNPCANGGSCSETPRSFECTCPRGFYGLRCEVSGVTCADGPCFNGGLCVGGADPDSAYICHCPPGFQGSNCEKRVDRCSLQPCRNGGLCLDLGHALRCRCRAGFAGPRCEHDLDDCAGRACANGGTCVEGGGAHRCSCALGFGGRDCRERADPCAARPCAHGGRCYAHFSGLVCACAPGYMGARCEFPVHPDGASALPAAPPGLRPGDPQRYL

human DLL4 protein = target: T6, human DLL4 protein (human, UniProt Q9NR61 27-524, limits assumed); experiment: ELISA, maximum over 0.1-100 nM
T6 construct: bought protein; construct and tag not described; also called hDLL4

human DLL1 protein = target: T7, human DLL1 protein (human, UniProt O00548 18-540, limits assumed); experiment: ELISA, maximum over 0.1-100 nM
T7 construct: bought protein; construct and tag not described; also called hDLL1
T7 sequence (looked up): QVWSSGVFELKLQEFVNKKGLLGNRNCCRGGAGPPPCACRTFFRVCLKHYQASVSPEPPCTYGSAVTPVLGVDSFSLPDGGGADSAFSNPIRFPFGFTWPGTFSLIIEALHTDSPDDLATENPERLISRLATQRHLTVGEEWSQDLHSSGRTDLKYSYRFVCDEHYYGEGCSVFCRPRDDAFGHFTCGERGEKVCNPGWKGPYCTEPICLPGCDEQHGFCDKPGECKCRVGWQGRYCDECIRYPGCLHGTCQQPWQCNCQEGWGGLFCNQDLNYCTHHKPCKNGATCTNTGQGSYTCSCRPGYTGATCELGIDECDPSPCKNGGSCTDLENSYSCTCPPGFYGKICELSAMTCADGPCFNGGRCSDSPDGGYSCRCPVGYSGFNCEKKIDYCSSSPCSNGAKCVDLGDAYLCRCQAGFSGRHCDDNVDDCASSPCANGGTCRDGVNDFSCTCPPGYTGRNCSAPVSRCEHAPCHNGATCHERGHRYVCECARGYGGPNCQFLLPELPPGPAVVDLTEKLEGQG

T6 sequence (Q9NR61 27-524 limits assumed): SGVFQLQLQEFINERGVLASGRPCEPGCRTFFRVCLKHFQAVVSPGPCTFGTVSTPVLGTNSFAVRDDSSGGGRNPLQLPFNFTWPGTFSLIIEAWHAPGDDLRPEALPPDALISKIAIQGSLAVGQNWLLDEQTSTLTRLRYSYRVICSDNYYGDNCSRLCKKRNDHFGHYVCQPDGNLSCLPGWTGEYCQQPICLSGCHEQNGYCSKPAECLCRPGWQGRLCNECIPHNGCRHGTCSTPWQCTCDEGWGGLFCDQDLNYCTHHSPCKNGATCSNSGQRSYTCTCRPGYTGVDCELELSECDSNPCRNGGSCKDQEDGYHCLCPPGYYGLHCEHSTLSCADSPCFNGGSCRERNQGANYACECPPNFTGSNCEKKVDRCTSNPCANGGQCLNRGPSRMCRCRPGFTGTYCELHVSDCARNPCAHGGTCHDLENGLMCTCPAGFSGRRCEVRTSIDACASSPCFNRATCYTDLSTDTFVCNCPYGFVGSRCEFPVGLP

Binder	binding result [1]	binding result [2]	binding result [3]	binding result [4]	binding result (human DLL3-his protein)	Emax of OD450 nm binding value (human DLL4 protein)	Emax of OD450 nm binding value (human DLL1 protein)
B1	binds	binds	binds	binds	binds		
B2		binds			binds	0.06 OD450	0.06 OD450
B3	no binding	binds	binds	binds	binds		
B4	no binding	binds	binds	binds	binds		
B5	no binding	binds	binds	binds	binds		
B6	no binding	binds	binds	binds	binds		
B7		binds			binds	0.05 OD450	0.05 OD450
B8		binds			binds	0.05 OD450	0.05 OD450
B9		binds			binds	0.04 OD450	0.05 OD450
